Source: US20130280279A1, “PHARMACEUTICAL COMPOSITION OF A COMPLEX OF AN ANTI-DIG ANTIBODY AND DIGOXIGENIN THAT IS CONJUGATED TO A PEPTIDE” (HOFFMANN-LA ROCHE INC., priority 2011, published 2013)
Each block holds one molecule with its values, some of them ahead of it.

Columns and labels:
DIG-myoglobin = assay: SPR binding to mono-digoxigenated protein DIG-myoglobin
Protocol: Further SPR studies were performed in which the binding affinity of the humanized <DIG>-IgG, IGF1R-DIG and the murine <DIG>M-19-11 was compared in binding to a mono-digoxigenated protein DIG-myoglobin.

[1] = target: digoxigenated nucleic acids (siRNA-Dig); assay: SPR (Biacore) binding to digoxigenated nucleic acids; settings: 25° C., read-out: Kd towards digoxigenated nucleic acids (siRNA-Dig)
Protocol: For that, binding properties of the recombinant <Dig> derivatives were analyzed by surface plasmon resonance (SPR) technology using a Biacore T100 or Biacore 3000 instrument (GE Healthcare Bio-Sciences AB, Uppsala). This system is well established for the study of molecule interactions. It allows a continuous real-time monitoring of ligand/analyte bindings and thus the determination of association rate constants (ka), dissociation rate constants (kd), and equilibrium constants (KD) in various assay settings. SPR-technology is based on the measurement of the refractive index close to the surface of a gold coated biosensor chip. Changes in the refractive index indicate mass changes on the surface caused by the interaction of immobilized ligand with analyte injected in solution. […]
Anti-mouse IgG antibody was immobilized on the surface of a CM5 biosensor chip in the same fashion as described above. […] The samples to be analyzed were diluted in HBS-P (10 mM HEPES, pH 7.4, 150 mM NaCl, 0.005% Surfactant P20) and injected at a flow rate of 5 μl/min. […] Signals were detected at a rate of one signal per second. […]
Anti-mouse and anti-human IgG antibodies were immobilized on the surface of a CM5 biosensor chip in the same fashion as described above. The samples to be analyzed were diluted in HBS-P and injected at a flow rate of 5 μl/min. […]

- affinity to DIG-Myo compared with the humanized derivatives (DIG-myoglobin): clearly better
- Kd [1]: 0.269 nM
B1: murine DIG-IgG 19-11: monoclonal murine <Dig> IgG1 kappa antibody from hybridoma clone 19-11 (antibody, V domains shown)
VH: EVQLVESGGGLVKPGGSLKLSCAVSGFTFSDYAMSWIRQTPENRLEWVASINIGATYAYYPDSVKGRFTISRDNAKNTLFLQMSSLGSEDTAMYYCARPGSPYEYDKAYYSMAYWGPGTSVTVSS
VL: DVQMTQSTSSLSASLGDRVTISCRASQDIKNYLNWYQQKPGGTVKLLIYYSSTLLSGVPSRFSGRGSGTDFSLTITNLEREDIATYFCQQSITLPPTFGGGTKLEIK

- Kd [1]: 12 nM
B2: humanized DIG-IgG: humanized IgG with the binding specificity of murine <Dig> 19-11 (antibody, V domains shown)
VH: QVQLVESGGGLVKPGGSLRLSCAASGFTFSDYAMSWIRQAPGKGLEWVSSINIGATYIYYADSVKGRFTISRDNAKNSLYLQMNSLRAEDTAVYYCARPGSPYEYDKAYYSMAYWGQGTTVTVSS
VL: DIQMTQSPSSLSASVGDRVTITCRASQDIKNYLNWYQQKPGKAPKLLIYYSSTLLSGVPSRFSGSGSGTDFTLTISSLQPEDFATYYCQQSITLPPTFGGGTKVEIKR
